Reference: patent US9260500B2, “Peptide and use thereof” (Takeda Pharmaceutical Company Limited, priority 2009, dated 2016)
Starred links: 1 amine or outer side, 2 acyl side, 3 side chain; linkers in the order of their positions; H or OH if unused. Non-standard residues stand in square brackets, D forms with d. Azetidine3carboxylic = O=C(C1CN([*:1])C1)[*:2]; 4Pal = N[C@@H](Cc1ccncc1)C(=O)O; Cha = N[C@@H](CC1CCCCC1)C(=O)O; dCha = N[C@H](CC1CCCCC1)C(=O)O; Aipe = 3-aminobutanoic acid; Iva = CC[C@](C)(N)C(=O)O; dAze = O=C(O)[C@H]1CCN1; Abu = CC[C@H](N)C(=O)O; Aib = CC(C)(N)C(=O)O

What was measured:
human Y2 receptor [1] = target: T1, human Y2 receptor (Homo sapiens, UniProt P49146); test: Human Y2 Receptor G Protein Binding Assay (GBA), [35S]GTPγS; assay type: biochemical; settings: EC50 of test compound/EC50 of PYY(3-36) (PYY3-36 taken as 1), hY2R/CHO membrane fraction
T1 construct: expressed in transfected cells; membrane fraction
T1 sequence (P49146 1-381): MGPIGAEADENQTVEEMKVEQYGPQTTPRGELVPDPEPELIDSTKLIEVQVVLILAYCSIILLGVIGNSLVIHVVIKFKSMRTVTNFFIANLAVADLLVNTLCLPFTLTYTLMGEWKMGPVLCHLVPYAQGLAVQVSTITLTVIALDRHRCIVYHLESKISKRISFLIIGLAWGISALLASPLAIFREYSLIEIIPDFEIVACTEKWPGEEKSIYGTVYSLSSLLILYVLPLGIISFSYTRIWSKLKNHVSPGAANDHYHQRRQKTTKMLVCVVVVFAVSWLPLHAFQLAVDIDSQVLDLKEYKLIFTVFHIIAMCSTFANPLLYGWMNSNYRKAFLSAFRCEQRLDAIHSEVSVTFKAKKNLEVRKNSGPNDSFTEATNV
Protocol: (3) Test Method: Human Y2 Receptor G Protein Binding Assay (GBA)
The agonist activity of the compound of the present invention against the human Y2 receptor was measured by the method described below.
2 μL of the test compound, serially diluted with DMSO from 100 μM to 1 nM, was dispensed to a 96-well plate, and 100 μL of the membrane fraction, previously diluted with an assay buffer (50 mM Tris, 5 mM MgCl2, 150 mM NaCl, […], 0.03% NaN3, 0.1% BSA, pH 7.4) to 1 μg protein/mL, was dispensed thereto, subsequently, 100 μL of a [^35S]GTPγS (NEG030H, PerkinElmer, previously diluted with the assay buffer to 1 nM) was added, and they were mixed by pipetting. After incubation at room temperature for 120 minutes, the mixture was filtered through the cell harvester FilterMate (PerkinElmer) using the UniFilter-96 GF/C (PerkinElmer), and the filter was washed 3 times with a filtering buffer (50 mM Tris, 5 mM MgCl2, 150 mM NaCl, 0.03% NaN3, 0.05% CHAPS, pH 7.4). Thereafter, UniFilter-96 GF/C was dried in a mechanical drier for 1 hour, 15 μl of the liquid scintillator MicroScint O (PerkinElmer) was added to each well, and a measurement was taken using TopCount (PerkinElmer). The data obtained were analyzed using Prism to calculate the EC50 value. The agonist activity of the test compound was expressed as a ratio to the EC50 value of PYY3-36 taken as 1 (EC50 Ratio: EC50 of test compound/EC50 of PYY(3-36)). The results are shown in the GBA column in Table 5 (Table 5-1-Table 5-10).

human Y2 receptor [2] = target: T1, human Y2 receptor; test: Receptor Binding Assay (RBA) for Human Y2, [125I]-PYY displacement on hY2R/CHO membrane fraction; settings: IC50 of test compound/IC50 of PYY(3-36) (PYY(3-36) taken as 1)
Protocol: (1) Construction of Expression Plasmid for the Human Y2 Receptor (Y2R) Gene
PCR was performed by a reaction using Pfu DNA polymerase ([…]), with a human brain cDNA (PT3158-1, Clontech) as the template, wherein synthetic DNAs with the following sequences were used as a combination of 5′ and 3′ primers, whereby the human Y2R gene was cloned. Primer 1 was prepared on the basis of base sequence information on the human Y2R gene (Refseq ID No. NM_000910) with the addition of Kozak's consensus sequence. Primer 2 was prepared on the basis of base sequence information on the human Y2R gene.
The PCR product obtained was cloned into pCR4-Blunt-TOPO (Invitrogen), and the plasmid was extracted according to a conventional method (QIAwell 8 Plus, QIAGEN). After confirming the base sequence, the human Y2R gene was re-cloned by a PCR reaction with the plasmid DNA as the template, using Primer 1 as the 5′ primer and Primer 2 as the 3′ primer. The PCR was performed using the Pyrobest DNA polymerase (TaKaRa). The PCR product obtained was re-cloned into pCR-Blunt II-TOPO (Invitrogen), and the plasmid was extracted according to a conventional method (QIAGEN). An Xho I restriction enzyme digestion site and an Spe I restriction enzyme digestion site are present in the cloning site of the pCR-Blunt II-TOPO; a plasmid clone was selected wherein the human Y2R gene was inserted in the orientation such that the Xho I restriction enzyme digestion site was positioned upstream of Primer 1, and the Spe I restriction enzyme digestion site was positioned downstream of Primer 2. After confirming the base sequence, the plasmid clone was digested with the restriction enzymes Xho I and Spe I to yield a DNA fragment. The DNA fragment was inserted into the animal cell expression vector pAKKO-111H (the same plasmid as pAKKO-1.111H described in Biochem. Biophys. Acta, Hinuma, S. et al., 1219, 251-259 (1994)), which was enzymatically digested with Sal I and Spe I, to yield the expression plasmid pAK-hY2R (pAKKO-111H/Y2R).
(2) Test Method: Receptor Binding Assay (RBA) for Human Y2
A human NPY2R (hY2R) stable expression cell line was acquired by transducing the animal cell expression plasmid pAK-hY2R into CHO/dhfr-cells using the CellPhect Transfection kit (Amersham Pharmacia Biotech Co.). First, 240 μl of Buffer A (attached to the CellPhect Transfection kit) was added to 9.6 μg of the plasmid DNA dissolved in 240 μl of distilled water; this mixture was stirred and allowed to stand for 10 minutes, after which 480 μL of Buffer B (attached to the CellPhect Transfection kit) was added, and the mixture was vigorously stirred to form a liposome containing the DNA. 2.5×10^5 or 4×10^5 CHO/dhfr− cells (obtained from ATCC) were seeded to 60 mm petri dishes, and cultured in Ham's F-12 medium (Sigma Co.) containing 10% fetal bovine serum (BioWest Co.) at 37° C. in 5% gaseous carbon dioxide for 1 day, after which 480 μL of the liposome was added drop by drop on to the cells in each petri dish. This was cultured at 37° C. in 5% gaseous carbon dioxide for 6 hours, after which the cells were twice washed with serum-free Ham's F-12 medium; 3 mL of 15% glycerol was added onto the cells in the petri dish and treated for 2 minutes. This was again washed 3 times with serum-free Ham's F-12 medium, after which the cells were cultured in Ham's F-12 medium containing 10% fetal bovine serum at 37° C. in 5% gaseous carbon dioxide. The cells were dispersed by trypsinization and recovered from the petri dishes, and seeded to a 6-well plate at 2.5×10^4 or 4×10^4 cells per well; cultivation was begun in Dulbecco's modified Eagle medium <DMEM> medium (Sigma Co.) containing dialyzed 10% fetal bovine serum (Invitrogen Co.) at 37° C. in 5% gaseous carbon dioxide. Since plasmid-introduced transformant CHO cells grow in the medium, whereas cells without plasmid introduction die gradually, about 20 colonies of transformed CHO cell that had grown 9-13 days after the start of the cultivation were isolated. […]

Substance | GBA EC50 Ratio (human Y2 receptor [1]) | RBA IC50 Ratio (human Y2 receptor [2])
Ac-[Abu23, D-Pro24, Abu26, Cha27,28,36, Aib31]-PYY(23-36) (Ac-[Abu][dP]R[Abu][Cha][Cha]NL[Aib]TRQR[Cha]-NH2; SMILES CC[C@H](NC(=O)[C@H](CCCNC(=N)N)NC(=O)[C@H]1CCCN1C(=O)[C@H](CC)NC(C)=O)C(=O)N[C@@H](CC1CCCCC1)C(=O)N[C@@H](CC1CCCCC1)C(=O)N[C@@H](CC(N)=O)C(=O)N[C@@H](CC(C)C)C(=O)NC(C)(C)C(=O)N[C@H](C(=O)N[C@@H](CCCNC(=N)N)C(=O)N[C@@H](CCC(N)=O)C(=O)N[C@@H](CCCNC(=N)N)C(=O)N[C@@H](CC1CCCCC1)C(N)=O)[C@@H](C)O) [compound No. 105] | 4.0 | 6.9
Ac-[Aipe24, Pya(4)26, Cha27,36, Aib28,31, Lys30]-PYY(23-36) (Ac-S[Aipe]R[4Pal][Cha][Aib]NK[Aib]TRQR[Cha]-NH2) [compound No. 243] | 2 | 1.3
Ac-[Ala26, Ile28,31, Arg(Me)35]-PYY(22-36) [compound No. 1] | 13 | 50
Ac-[Arg23, D-Pro24, Iva25, Pya(4)26, Cha27,36, Aib28,31, Lys30]-PYY(23-36) (Ac-R[dP][Iva][4Pal][Cha][Aib]NK[Aib]TRQR[Cha]-NH2; SMILES CC[C@](C)(NC(=O)[C@H]1CCCN1C(=O)[C@H](CCCNC(=N)N)NC(C)=O)C(=O)N[C@@H](Cc1ccncc1)C(=O)N[C@@H](CC1CCCCC1)C(=O)NC(C)(C)C(=O)N[C@@H](CC(N)=O)C(=O)N[C@@H](CCCCN)C(=O)NC(C)(C)C(=O)N[C@H](C(=O)N[C@@H](CCCNC(=N)N)C(=O)N[C@@H](CCC(N)=O)C(=O)N[C@@H](CCCNC(=N)N)C(=O)N[C@@H](CC1CCCCC1)C(N)=O)[C@@H](C)O) [compound No. 321] | 0.78 | 0.88

Results, then the substance that gave them:

GBA EC50 Ratio (human Y2 receptor [1]) | RBA IC50 Ratio (human Y2 receptor [2]) | Substance
4.7 | 11 | Ac-[Aze(3)24, Cha27,28,36, Aib31]-PYY(23-36) (Ac-S[Azetidine3carboxylic]RH[Cha][Cha]NL[Aib]TRQR[Cha]-NH2; SMILES CC(=O)N[C@@H](CO)C(=O)N1CC(C(=O)N[C@@H](CCCNC(=N)N)C(=O)N[C@@H](Cc2c[nH]cn2)C(=O)N[C@@H](CC2CCCCC2)C(=O)N[C@@H](CC2CCCCC2)C(=O)N[C@@H](CC(N)=O)C(=O)N[C@@H](CC(C)C)C(=O)NC(C)(C)C(=O)N[C@H](C(=O)N[C@@H](CCCNC(=N)N)C(=O)N[C@@H](CCC(N)=O)C(=O)N[C@@H](CCCNC(=N)N)C(=O)N[C@@H](CC2CCCCC2)C(N)=O)[C@@H](C)O)C1) [compound No. 113]
1.3 | 1.7 | Ac-[D-Aze(2)24, Cha27,28,36, Aib31]-PYY(23-36) (Ac-S[dAze]RH[Cha][Cha]NL[Aib]TRQR[Cha]-NH2; SMILES CC(=O)N[C@@H](CO)C(=O)N1CC[C@@H]1C(=O)N[C@@H](CCCNC(=N)N)C(=O)N[C@@H](Cc1c[nH]cn1)C(=O)N[C@@H](CC1CCCCC1)C(=O)N[C@@H](CC1CCCCC1)C(=O)N[C@@H](CC(N)=O)C(=O)N[C@@H](CC(C)C)C(=O)NC(C)(C)C(=O)N[C@H](C(=O)N[C@@H](CCCNC(=N)N)C(=O)N[C@@H](CCC(N)=O)C(=O)N[C@@H](CCCNC(=N)N)C(=O)N[C@@H](CC1CCCCC1)C(N)=O)[C@@H](C)O) [compound No. 153]
13 | 15 | Ac-[D-Cha24, Abu26, Cha27,28,36, Aib31]-PYY(24-36) (Ac-[dCha]R[Abu][Cha][Cha]NL[Aib]TRQR[Cha]-NH2; SMILES CC[C@H](NC(=O)[C@H](CCCNC(=N)N)NC(=O)[C@@H](CC1CCCCC1)NC(C)=O)C(=O)N[C@@H](CC1CCCCC1)C(=O)N[C@@H](CC1CCCCC1)C(=O)N[C@@H](CC(N)=O)C(=O)N[C@@H](CC(C)C)C(=O)NC(C)(C)C(=O)N[C@H](C(=O)N[C@@H](CCCNC(=N)N)C(=O)N[C@@H](CCC(N)=O)C(=O)N[C@@H](CCCNC(=N)N)C(=O)N[C@@H](CC1CCCCC1)C(N)=O)[C@@H](C)O) [compound No. 84]
